From article PMC4117790, “HRAS is silenced by two neighboring G-quadruplexes and activated by MAZ, a zinc-finger transcription factor with DNA unfolding property” come the findings set out here.

In data set [1] the target is T1, MAZ-GST (UniProt P56270 1-477).
T1 sequence: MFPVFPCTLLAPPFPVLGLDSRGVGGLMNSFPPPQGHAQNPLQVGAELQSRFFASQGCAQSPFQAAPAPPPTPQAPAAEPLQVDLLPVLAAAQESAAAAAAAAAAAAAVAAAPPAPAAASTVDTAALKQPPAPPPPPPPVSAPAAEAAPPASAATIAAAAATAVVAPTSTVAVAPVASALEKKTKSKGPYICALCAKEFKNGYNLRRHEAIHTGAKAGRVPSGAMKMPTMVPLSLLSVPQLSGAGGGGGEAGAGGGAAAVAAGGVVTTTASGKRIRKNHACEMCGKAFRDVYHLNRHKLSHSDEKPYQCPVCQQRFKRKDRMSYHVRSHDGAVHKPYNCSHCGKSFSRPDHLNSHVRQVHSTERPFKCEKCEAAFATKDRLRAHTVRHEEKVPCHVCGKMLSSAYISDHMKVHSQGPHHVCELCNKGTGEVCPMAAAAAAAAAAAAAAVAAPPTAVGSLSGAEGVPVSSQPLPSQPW
In words: double-filter binding; 100 mM KCl, 50 uM Zn acetate; Hill n = 1.6 ± 0.3; EMSA/filter: 20 mM Tris-HCl pH 8, 8% glycerol, 100 uM MgCl2, 50 uM Zn acetate, 1 mM DTT, 2.5 ng/ul poly dIdC, 1 mM Na3VO4, 5 mM NaF, KCl as stated (100 mM for filter binding); EMSA gel 20 C, filter 4 C 30 min; FRET: 50 mM Tris-HCl pH 7.4, 50 uM Zn acetate, 50 mM KCl, 37 C. The note with it: protein: recombinant; tags: GST; label: 32P; antiparallel intramolecular G4.

For data set [2], the target named is T1, MAZ-GST. Nature of the data set: double-filter binding; 100 mM KCl, 50 uM Zn acetate; Hill n = 1.4 ± 0.2; EMSA/filter: 20 mM Tris-HCl pH 8, 8% glycerol, 100 uM MgCl2, 50 uM Zn acetate, 1 mM DTT, 2.5 ng/ul poly dIdC, 1 mM Na3VO4, 5 mM NaF, KCl as stated (100 mM for filter binding); EMSA gel 20 C, filter 4 C 30 min; FRET: 50 mM Tris-HCl pH 7.4, 50 uM Zn acetate, 50 mM KCl, 37 C. The following applies: protein: recombinant; tags: GST; label: 32P; parallel intramolecular G4.

With TCGGGTTGCGGGCGCAGGGCACGGGCG (structured_DNA) [hras-1 quadruplex], in the data set with MAZ-GST [1], the Kd is 504 ± 84 nM.
In the case of CGGGGCGGGGCGGGGGCGGGGGCG (structured_DNA) [hras-2 quadruplex], in the data set with MAZ-GST [2], the equilibrium dissociation constant (Kd) was determined as 207 ± 12 nM.
